No end group written: not given here. *: point of attachment. Biotin = O=C1N[C@H]2[C@H](CS[C@H]2CCCCC(=O)*)N1
How the values were obtained:
Assay in all cases: peptide ELISA on streptavidin plate
[1] = biological target: T1, ET140-p1 (human)
T1 construct: also called peptide 1; ET140-pl
T1 peptide: Biotin-SGSGLQMAGQCSQNEYFDS
Protocol: (§1) The peptides were coated onto Streptavidin plates at 2 ug/mL in PBST (PBS+0.05% Tween-20). After washing and blocking with 3% BSA. […] “mIgG1” used in all Examples represents that the variable region is fully human and the Fc part is mouse IgG1. Then HRP anti-mouse IgG detection antibody was added to each well. Finally, the color was developed using TMB substrate. A450 was recorded for data analysis.

[2] = biological target: T2, ET140-p2 (human)
T2 construct: also called peptide 2
T2 peptide: Biotin-SGSGQMAGQCSQNEYFDSL
Protocol: as §1

[3] = biological target: T3, ET140-p3 (human)
T3 construct: also called peptide 3
T3 peptide: Biotin-SGSGMAGQCSQNEYFDSLL
Protocol: as §1

[4] = biological target: T4, ET140-p4 (human)
T4 construct: also called peptide 4
T4 peptide: Biotin-SGSGAGQCSQNEYFDSLLH
Protocol: as §1

[5] = biological target: T5, ET140-p5 (human)
T5 construct: also called peptide 5
T5 peptide: Biotin-SGSGGQCSQNEYFDSLLHA
Protocol: as §1

[6] = biological target: T6, ET140-p6 (human, cysteine pairing not given here)
T6 construct: also called peptide 6
T6 peptide: Biotin-SGSGQCSQNEYFDSLLHAC
Protocol: as §1

[7] = biological target: T7, ET140-p14 (human, cysteine pairing not given here)
T7 construct: also called peptide 14
T7 peptide: Biotin-SGSGDSLLHACIPCQLRCS
Protocol: as §1

[8] = biological target: T8, ET140-p16 (human, cysteine pairing not given here)
T8 construct: also called peptide 16
T8 peptide: Biotin-SGSGLLHACIPCQLRCSSN
Protocol: as §1

[9] = biological target: T9, ET140-p17 (human, cysteine pairing not given here)
T9 construct: also called peptide 17
T9 peptide: Biotin-SGSGLHACIPCQLRCSSNT
Protocol: as §1

[10] = biological target: T10, ET140-p18 (human, cysteine pairing not given here)
T10 construct: also called peptide 18
T10 peptide: Biotin-SGSGHACIPCQLRCSSNTP
Protocol: as §1

[11] = biological target: T11, ET140-p21 (human, cysteine pairing not given here)
T11 construct: also called peptide 21
T11 peptide: Biotin-SGSGIPCQLRCSSNTPPLT
Protocol: as §1

[12] = biological target: T12, ET140-p23 (human, cysteine pairing not given here)
T12 construct: also called peptide 23
T12 peptide: Biotin-SGSGCQLRCSSNTPPLTCQ
Protocol: as §1

[13] = biological target: T13, ET140-p24 (human, cysteine pairing not given here)
T13 construct: also called peptide 24
T13 peptide: Biotin-SGSGQLRCSSNTPPLTCQR
Protocol: as §1

[14] = biological target: T14, ET140-p27 (human, cysteine pairing not given here)
T14 construct: also called peptide 27
T14 peptide: Biotin-SGSGCSSNTPPLTCQRYCN
Protocol: as §1

[15] = biological target: T15, ET140-p28 (human, cysteine pairing not given here)
T15 construct: also called peptide 28
T15 peptide: Biotin-SGSGSSNTPPLTCQRYCNA
Protocol: as §1

[16] = biological target: T16, ET140-p29 (human, cysteine pairing not given here)
T16 construct: also called peptide 29
T16 peptide: Biotin-SGSGSNTPPLTCQRYCNAS
Protocol: as §1

[17] = biological target: T17, ET140-p30 (human, cysteine pairing not given here)
T17 construct: also called peptide 30
T17 peptide: Biotin-SGSGNTPPLTCQRYCNASV
Protocol: as §1

[18] = biological target: T18, ET140-p31 (human, cysteine pairing not given here)
T18 construct: also called peptide 31
T18 peptide: Biotin-SGSGTPPLTCQRYCNASVT
Protocol: as §1

[19] = biological target: T19, ET140-p33 (human, cysteine pairing not given here)
T19 construct: also called peptide 33
T19 peptide: Biotin-SGSGPLTCQRYCNASVTNS
Protocol: as §1

[20] = biological target: T20, ET140-p34 (human, cysteine pairing not given here)
T20 construct: also called peptide 34
T20 peptide: Biotin-SGSGLTCQRYCNASVTNSV
Protocol: as §1

[21] = biological target: T21, ET140-p36 (human, cysteine pairing not given here)
T21 construct: also called peptide 36
T21 peptide: Biotin-SGSGCQRYCNASVTNSVKG
Protocol: as §1

[22] = biological target: T22, ET140-p37 (human)
T22 construct: also called peptide 37
T22 peptide: Biotin-SGSGQRYCNASVTNSVKGT
Protocol: as §1

[23] = biological target: T23, ET140-p38 (human)
T23 construct: also called peptide 38
T23 peptide: Biotin-SGSGRYCNASVTNSVKGTN
Protocol: as §1

[24] = biological target: T24, ET140-p39 (human)
T24 construct: also called peptide 39
T24 peptide: Biotin-SGSGYCNASVTNSVKGTNA
Protocol: as §1

Measured: binding result

B1: ET140-153 mIgG1 (antibody, V domains shown)
VH: QVQLVQSGAEVKKPGSSVKVSCKASGGTFSSYAISWVRQAPGQGLEWMGRIIPILGIANYAQKFQGRVTITADKSTSTAYMELSSLRSEDTAVYYCARGGYYSHDMWSEDWGQGTLVTVSS
VL: LPVLTQPPSASGTPGQRVTISCSGRSSNIGSNSVNWYRQLPGAAPKLLIYSNNQRPPGVPVRFSGSKSGTSASLAISGLQSEDEATYYCATWDDNLNVHYVFGTGTKVTVLG
notes: also called ET140-3 mIgG1; ET140-3
no binding (tested: 1 ug/mL): all assays above

— US20210346432A1 (Memorial Sloan Kettering, published 2021)
